Data as given in US20240200091A1, “USE OF PROTOPORPHYRINOGEN OXIDASE” (BEIJING DABEINONG BIOTECHNOLOGY CO., LTD., priority 2021, published 2024).

Tests used:
Assay type in all cases: in vivo
[1] = tested on: Arabidopsis thaliana T1 plants; assay: oxyfluorfen tolerance of transgenic Arabidopsis thaliana T1 plants (spray, grade of pesticide damage); conditions: 7 DAT, number of plants of 24 per genotype, grades
Method in brief: (§1)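 Graded 0–3 by injured-to-total leaf area 7 days after spraying, with grades 0–1 rated highly resistant. Plants (24 per genotype, 18 days old) received water or 1× and 4× field rates (sulfentrazone 1× and 2×, 450/900 g ai/ha) of each herbicide.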

[2] = tested on: Arabidopsis thaliana T1 plants; assay: saflufenacil tolerance of transgenic Arabidopsis thaliana T1 plants (spray, grade of pesticide damage); conditions: 7 DAT, number of plants of 24 per genotype, grades
Method in brief: as §1

[3] = tested on: Arabidopsis thaliana T1 plants; assay: flumioxazin tolerance of transgenic Arabidopsis thaliana T1 plants (spray, grade of pesticide damage); conditions: 7 DAT, number of plants of 24 per genotype, grades
Method in brief: as §1

[4] = tested on: Arabidopsis thaliana T1 plants; assay: sulfentrazone tolerance of transgenic Arabidopsis thaliana T1 plants (spray, grade of pesticide damage); conditions: 7 DAT, number of plants of 24 per genotype, grades
Method in brief: as §1

[5] = tested on: transgenic soybean plants; assay: saflufenacil tolerance of transgenic soybean plants (spray, grade of pesticide damage); parameters: key to damage levels rated at grade: grade 0 means that the growth status of plants is essentially consistent with those sprayed with the blank solvent (water); grade 1 means that the average of the damage levels of plants is less than 10%; grade 2 means that the average of the damage levels of plants is greater than 100%; grade 3 means that the average of the damage levels of plants is 100%; conditions: for The grade of pesticide damage/plant: grade 0 / The grade of pesticide damage/plant: grade 1 / The grade of pesticide damage/plant: grade 2 / The grade of pesticide damage/plant: grade 3: 7 DAT, number of plants of 16 per genotype, grades
[6] = tested on: transgenic soybean plants; assay: oxyfluorfen tolerance of transgenic soybean plants (spray, grade of pesticide damage); conditions: for The grade of pesticide damage/plant: grade 0 / The grade of pesticide damage/plant: grade 1 / The grade of pesticide damage/plant: grade 2 / The grade of pesticide damage/plant: grade 3: 7 DAT, number of plants of 16 per genotype, grades; for tolerance to oxyfluorfen: soybean
[7] = tested on: transgenic soybean plants; assay: flumioxazin tolerance of transgenic soybean plants (spray, grade of pesticide damage); conditions: for The grade of pesticide damage/plant: grade 0 / The grade of pesticide damage/plant: grade 1 / The grade of pesticide damage/plant: grade 2 / The grade of pesticide damage/plant: grade 3: 7 DAT, number of plants of 16 per genotype, grades

B1: PPO1A: nucleotide sequence encoding microbial protoporphyrinogen oxidase PPO1 (SEQ ID NO:1), Arabidopsis thaliana/soybean common codon usage bias (nucleic acid)
DNA: ATGAAGGCTTTGGTACTCTACAGCACAAGAGACGGTCAGACACACGCGATCGCGTCGTACATTGCTAATTGCATGAAAGAGAAGTATGAGTGTGACGTTATTGATCTTCTTCATGCTCAGCATGTTACATTATCACGGTATGATAAGGTTCTTGTAGGAGCTTCTATACGATATGGACATTTCAATGCTGTGTTGGACAAATTTGTGAAGCAAAACATCCAACAACTAAACTCAATGCCTTCTGCTTTCTTTGCTGTTAATTTGACTGCCAGGAAACCTGAGAAACGTACTCCTCAGACCAATTCTTATGTTAGGAAGTTTCTTCTGGGGACACCATGGAAACCAGCAATGTGTGGCGTGTTTGCAGGAGCATTGAGGTATCCACGTTACAGATGGGTTGATAAAGTGATGATTCAGCTCATAATGAGAATGACTGGTGGTGAAACAGATACAAGCAAAGAAGTTGAGTATACTGATTGGGAACAAGTCAAAAAGTTCGCAGAAGATTTTGGAAAGCTAAGTTACAAGAAAACCCTCTGA
modifications: PPO1A Nucleotide Sequence
With B1 the “The grade of pesticide damage/plant: grade 0” value ([1]; oxyfluorfen 180 g ai/ha (1×)) was 24 plant, the “The grade of pesticide damage/plant: grade 1” value ([1]; oxyfluorfen 180 g ai/ha (1×)) was 0 plant and the “The grade of pesticide damage/plant: grade 2” value ([1]; oxyfluorfen 180 g ai/ha (1×)) was 0 plant. The “The grade of pesticide damage/plant: grade 3” value ([1]; oxyfluorfen 180 g ai/ha (1×)) was 0 plant, the “The grade of pesticide damage/plant: grade 0” value ([1]; oxyfluorfen 720 g ai/ha (4×)) was 19 plant and the “The grade of pesticide damage/plant: grade 1” value ([1]; oxyfluorfen 720 g ai/ha (4×)) was 5 plant. For the same molecule, the “The grade of pesticide damage/plant: grade 2” value ([1]; oxyfluorfen 720 g ai/ha (4×)) was 0 plant, the “The grade of pesticide damage/plant: grade 3” value ([1]; oxyfluorfen 720 g ai/ha (4×)) was 0 plant and the “The grade of pesticide damage/plant: grade 0” value ([2]; saflufenacil 25 g ai/ha (1×)) was 24 plant. The “The grade of pesticide damage/plant: grade 1” value ([2]; saflufenacil 25 g ai/ha (1×)) was 0 plant, the “The grade of pesticide damage/plant: grade 2” value ([2]; saflufenacil 25 g ai/ha (1×)) was 0 plant and the “The grade of pesticide damage/plant: grade 3” value ([2]; saflufenacil 25 g ai/ha (1×)) was 0 plant. The “The grade of pesticide damage/plant: grade 0” value ([2]; saflufenacil 100 g ai/ha (4×)) was 4 plant, the “The grade of pesticide damage/plant: grade 1” value ([2]; saflufenacil 100 g ai/ha (4×)) was 20 plant and the “The grade of pesticide damage/plant: grade 2” value ([2]; saflufenacil 100 g ai/ha (4×)) was 0 plant. For the same molecule, the “The grade of pesticide damage/plant: grade 3” value ([2]; saflufenacil 100 g ai/ha (4×)) was 0 plant, the “The grade of pesticide damage/plant: grade 0” value ([3]; flumioxazin 60 g ai/ha (1×)) was 24 plant and the “The grade of pesticide damage/plant: grade 1” value ([3]; flumioxazin 60 g ai/ha (1×)) was 0 plant. For the same molecule, the “The grade of pesticide damage/plant: grade 2” value ([3]; flumioxazin 60 g ai/ha (1×)) was 0 plant, the “The grade of pesticide damage/plant: grade 3” value ([3]; flumioxazin 60 g ai/ha (1×)) was 0 plant and the “The grade of pesticide damage/plant: grade 0” value ([3]; flumioxazin 240 g ai/ha (4×)) was 23 plant. For the same molecule, the “The grade of pesticide damage/plant: grade 1” value ([3]; flumioxazin 240 g ai/ha (4×)) was 1 plant, the “The grade of pesticide damage/plant: grade 2” value ([3]; flumioxazin 240 g ai/ha (4×)) was 0 plant and the “The grade of pesticide damage/plant: grade 3” value ([3]; flumioxazin 240 g ai/ha (4×)) was 0 plant. The “The grade of pesticide: grade 0” value ([4]; sulfentrazone 450 g ai/ha (1×)) was 24, the “The grade of pesticide: grade 1” value ([4]; sulfentrazone 450 g ai/ha (1×)) was 0 and the “The grade of pesticide: grade 2” value ([4]; sulfentrazone 450 g ai/ha (1×)) was 0. For the same molecule, the “The grade of pesticide: grade 3” value ([4]; sulfentrazone 450 g ai/ha (1×)) was 0, the “The grade of pesticide: grade 0” value ([4]; sulfentrazone 900 g ai/ha (2×)) was 20 and the “The grade of pesticide: grade 1” value ([4]; sulfentrazone 900 g ai/ha (2×)) was 4. The “The grade of pesticide: grade 2” value ([4]; sulfentrazone 900 g ai/ha (2×)) was 0, the “The grade of pesticide: grade 3” value ([4]; sulfentrazone 900 g ai/ha (2×)) was 0 and the “The grade of pesticide damage/plant: grade 0” value ([5]; saflufenacil 50 g ai/ha (2×)) was 16 plant. For the same molecule, the “The grade of pesticide damage/plant: grade 1” value ([5]; saflufenacil 50 g ai/ha (2×)) was 0 plant, the “The grade of pesticide damage/plant: grade 2” value ([5]; saflufenacil 50 g ai/ha (2×)) was 0 plant and the “The grade of pesticide damage/plant: grade 3” value ([5]; saflufenacil 50 g ai/ha (2×)) was 0 plant. The “The grade of pesticide damage/plant: grade 0” value ([5]; saflufenacil 100 g ai/ha (4×)) was 16 plant, the “The grade of pesticide damage/plant: grade 1” value ([5]; saflufenacil 100 g ai/ha (4×)) was 0 plant and the “The grade of pesticide damage/plant: grade 2” value ([5]; saflufenacil 100 g ai/ha (4×)) was 0 plant. For the same molecule, the “The grade of pesticide damage/plant: grade 3” value ([5]; saflufenacil 100 g ai/ha (4×)) was 0 plant, the tolerance to saflufenacil ([5]; soybean, saflufenacil at four-fold field concentration (100 g ai/ha)) was “high-resistant tolerance” and the “damage levels rated at grade” value ([5]; soybean, saflufenacil at two-fold field concentration (50 g ai/ha)) was 0. For the same molecule, the tolerance to saflufenacil ([5]; soybean, saflufenacil, compared with the control vector and CK) was “different extents of tolerance”, the “The grade of pesticide damage/plant: grade 0” value ([6]; oxyfluorfen 360 g ai/ha (2×)) was 16 plant and the “The grade of pesticide damage/plant: grade 1” value ([6]; oxyfluorfen 360 g ai/ha (2×)) was 0 plant. The “The grade of pesticide damage/plant: grade 2” value ([6]; oxyfluorfen 360 g ai/ha (2×)) was 0 plant, the “The grade of pesticide damage/plant: grade 3” value ([6]; oxyfluorfen 360 g ai/ha (2×)) was 0 plant and the “The grade of pesticide damage/plant: grade 0” value ([6]; oxyfluorfen 720 g ai/ha (4×)) was 16 plant. The “The grade of pesticide damage/plant: grade 1” value ([6]; oxyfluorfen 720 g ai/ha (4×)) was 0 plant, the “The grade of pesticide damage/plant: grade 2” value ([6]; oxyfluorfen 720 g ai/ha (4×)) was 0 plant and the “The grade of pesticide damage/plant: grade 3” value ([6]; oxyfluorfen 720 g ai/ha (4×)) was 0 plant. For the same molecule, the tolerance to oxyfluorfen ([6]; oxyfluorfen at four-fold field concentration (720 g ai/ha)) was “high-resistant tolerance”, the tolerance to oxyfluorfen ([6]; oxyfluorfen at two-fold field concentration (360 g ai/ha)) was “high-resistant tolerance” and the “The grade of pesticide damage/plant: grade 0” value ([7]; flumioxazin 120 g ai/ha (2×)) was 16 plant. For the same molecule, the “The grade of pesticide damage/plant: grade 1” value ([7]; flumioxazin 120 g ai/ha (2×)) was 0 plant, the “The grade of pesticide damage/plant: grade 2” value ([7]; flumioxazin 120 g ai/ha (2×)) was 0 plant and the “The grade of pesticide damage/plant: grade 3” value ([7]; flumioxazin 120 g ai/ha (2×)) was 0 plant. The “The grade of pesticide damage/plant: grade 0” value ([7]; flumioxazin 240 g ai/ha (4×)) was 16 plant, the “The grade of pesticide damage/plant: grade 1” value ([7]; flumioxazin 240 g ai/ha (4×)) was 0 plant and the “The grade of pesticide damage/plant: grade 2” value ([7]; flumioxazin 240 g ai/ha (4×)) was 0 plant. The “The grade of pesticide damage/plant: grade 3” value ([7]; flumioxazin 240 g ai/ha (4×)) was 0 plant and the tolerance to flumioxazin ([7]; soybean, flumioxazin at different concentrations (120 and 240 g ai/ha)) was “high-resistant tolerance”.
